Data reported in the supplement of paper PMC12042874.
± gives the uncertainty stated by the source.

Test: amyloid nucleation score (Sup35N fusion, yeast selection) (log enrichment); library NNK1; higher = more nucleation; inactive = no reads after selection
In short: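 Output and input plasmid inserts were sequenced by Illumina after psi-negative yeast carrying Sup35N fused to peptides of 20 random codons had been induced 24 hours with 100 μM copper sulfate and grown 7 days at 30°C on medium lacking adenine and uracil. The nucleation score is the DiMSum log enrichment of output over input reads, centred on the mode score of non-aggregating sequences. Sequences with under 100 input reads were excluded.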
TVSLGVAAVMFPR gave an amyloid nucleation score of 0.95 ± 0.36.
With ATNSEAARYLS the amyloid nucleation score was 0.996 ± 0.62.
In the case of QKWNMFVSSWVYDRRRTRGC, the amyloid nucleation score is reported as 0.301 ± 1.1.
Work on SGYDDFWMTWTAKRVWHRAR yielded an amyloid nucleation score of -0.436 ± 0.64.
In the case of DGFALGMSRC, the amyloid nucleation score is reported as “inactive”.
Substance AFVLDIYMGMRSRYNDAPS has an amyloid nucleation score of 1.78 ± 0.31.
Substance FENIDLP has an amyloid nucleation score of -0.364 ± 0.62.
YFIARREQFWIMLPGELALE gave an amyloid nucleation score of -0.756 ± 1.7.
Substance CVELVLSCV has an amyloid nucleation score of -0.095 ± 0.43.
RIYTYSNCVGLKLAFTFAYR showed an amyloid nucleation score of 0.642 ± 0.36.
VHNCMVFLLKFIDSRHFIVI gave an amyloid nucleation score of -0.292 ± 1.6.
In the case of MMVFKVSFKVIKVT, the amyloid nucleation score is reported as -0.07 ± 0.86.
For IYAYAIDSFRSLVFFVFMFG, the amyloid nucleation score was “inactive”.
Substance VFGHIGIDRGI has an amyloid nucleation score of 2.74 ± 0.22.
For INSAHYELN, the amyloid nucleation score was -1.51 ± 2.4.
For FTCFATCCVLMNNVYYFMTL, the amyloid nucleation score was 5.085 ± 0.05.
TVNYTCYYGYIIFGYASSVK showed an amyloid nucleation score of 3.63 ± 0.076.
CNHSTSFVEVVERL gave an amyloid nucleation score of -0.085 ± 0.42.
HFRDCVPYFMVSRSRGELGE gave an amyloid nucleation score of -0.42 ± 0.75.
Substance CLFNSGFSDIGLRGMWGRKF has an amyloid nucleation score of 0.358 ± 0.35.
In the case of FMCVGSYDPYPWP, the amyloid nucleation score is reported as 0.659 ± 0.51.
For HCRYMMSRVILSCILARPQ, the amyloid nucleation score was 2.55 ± 0.15.
With VVTRWLASNNDGGIESLLIK the amyloid nucleation score was 0.132 ± 0.33.
In the case of NFDSELFSPLMISDVREFTK, the amyloid nucleation score is reported as 1.62 ± 0.47.
VRKSVSTFT showed an amyloid nucleation score of 0.055 ± 0.37.
MGAVKH showed an amyloid nucleation score of -0.017 ± 0.3.
With TDSEVAFVNGTNSQRWFFGW the amyloid nucleation score was 1.07 ± 0.53.
In the case of FGSLRHCFTFNCNPGMGVWV, the amyloid nucleation score is reported as 2.53 ± 0.16.
For NFSHHSIYGHVPRPEEQNPM, the amyloid nucleation score was 0.481 ± 1.
TVSKLSCYNVVDPTIWNLSD showed an amyloid nucleation score of 0.236 ± 0.69.
With PVGVKGVQMVLS the amyloid nucleation score was -0.226 ± 0.83.
With NMGNLFNICETGNLL the amyloid nucleation score was 0.296 ± 0.66.
MRKVYNEWLKTNYYKHMNRV gave an amyloid nucleation score of 0.452 ± 0.51.
For SVPAHFNRYMCNRGYCRFRR, the amyloid nucleation score was “inactive”.
With AFYSEMGFSDVYILLVYSMM the amyloid nucleation score was 4.45 ± 0.073.
Substance KFRRLQARFASMMSSTFT has an amyloid nucleation score of 1.82 ± 0.14.
In the case of NWGAISISDRGPQKTDTAWT, the amyloid nucleation score is reported as -0.048 ± 0.48.
HPSSKLSRMCLD gave an amyloid nucleation score of 0.717 ± 0.93.
For SLQHGYVVYVIVFLDATSNT, the amyloid nucleation score was -0.186 ± 0.86.
In the case of YTYMHRNDEFALM, the amyloid nucleation score is reported as “inactive”.
Substance LRRLTTVAGIVIAVTSEDDT has an amyloid nucleation score of 0.595 ± 0.73.
RSLFLDCS gave an amyloid nucleation score of -0.475 ± 0.91.
Work on NFFDLLYFL yielded an amyloid nucleation score of 0.175 ± 0.82.
Substance TVNVY has an amyloid nucleation score of 0.829 ± 0.62.
HSFMYKENAGMSGTLR showed an amyloid nucleation score of 0.187 ± 0.48.
In the case of GLGTAYIGLCWHTIWHAAGV, the amyloid nucleation score is reported as 1.46 ± 0.16.
With LRHFCGTFAAVTRKRVYPLS the amyloid nucleation score was -0.95 ± 2.7.
For RACLQFRQLVGDRLG, the amyloid nucleation score was 1.52 ± 0.73.
WREYRLWDEG gave an amyloid nucleation score of -0.208 ± 0.36.
Substance NPLVFRN has an amyloid nucleation score of -0.122 ± 0.61.
Substance VILRIIILYCLYHVWISGM has an amyloid nucleation score of 0.177 ± 0.34.
For RKRHSDNYRCEVNRS, the amyloid nucleation score was -0.235 ± 0.52.
With VYSQINSRHWEFMDLELSLG the amyloid nucleation score was 0.147 ± 0.93.
With MTPEAL the amyloid nucleation score was -0.063 ± 0.43.
CVCLKDPANLSAIGCRGESL showed an amyloid nucleation score of -1.6 ± 2.7.
VDISIVWDVPHQVLTGGFY showed an amyloid nucleation score of -0.531 ± 0.29.
In the case of GVISAGYFAGYETKLLLKGD, the amyloid nucleation score is reported as 0.983 ± 0.97.
For RLCPTVRVQRLMFFPVCPGP, the amyloid nucleation score was -0.035 ± 0.42.
YKATRRRQLLSPVIGEDQIG showed an amyloid nucleation score of 0.208 ± 0.32.
YVPALYRVSGLCYLLTNHEF showed an amyloid nucleation score of 0.557 ± 0.18.
Work on GGSDFWIGN yielded an amyloid nucleation score of 0.277 ± 0.48.
For DVYVACTSFDLELCICVMRL, the amyloid nucleation score was 0.237 ± 0.7.
For TVIEIKL, the amyloid nucleation score was 1.28 ± 0.85.
For SKVNISSYNSCFVRKGCQCR, the amyloid nucleation score was 6.328 ± 0.046.
For YFPGVSRGQVDEPVYLCCQR, the amyloid nucleation score was 0.068 ± 0.57.
In the case of GLVLTIWHLRTAEERIVYRA, the amyloid nucleation score is reported as 1.58 ± 0.26.
Work on NGSVTNNKNHPFVDYGVRHE yielded an amyloid nucleation score of -0.468 ± 0.36.
Work on FRLGPLEQ yielded an amyloid nucleation score of -1.61 ± 1.7.
For CLFLIKKHVNNDMGSVRRLS, the amyloid nucleation score was 0.317 ± 0.71.
With DPSPLR the amyloid nucleation score was -0.827 ± 2.4.
Substance WNISSTFGYGNHWLG has an amyloid nucleation score of 0.816 ± 0.52.
In the case of GFPSRSIHFKLYLAANMQ, the amyloid nucleation score is reported as 1.07 ± 0.53.
Work on ICGQLPISMGVLSIFWWFES yielded an amyloid nucleation score of 0.331 ± 0.79.
In the case of YFSFIWMYKMDIMTI, the amyloid nucleation score is reported as -0.117 ± 0.35.
FLHRM showed an amyloid nucleation score of 0.062 ± 0.75.
Substance EVAMVYFKCVLFITSDSKQR has an amyloid nucleation score of -0.823 ± 1.1.
For ADFKEFECDLARPLLGIKFL, the amyloid nucleation score was 0.054 ± 0.91.
In the case of YNSRRCNIHFNFIGKC, the amyloid nucleation score is reported as 6.783 ± 0.054.
For LLHGGY, the amyloid nucleation score was -1.86 ± 2.4.
Substance RNLVWDMNAFKHVFCEDIHY has an amyloid nucleation score of 0.396 ± 0.69.
In the case of LVYILMLYWVYGQIGNFSLV, the amyloid nucleation score is reported as -0.955 ± 0.9.
Work on GDRRLSVLGPYMARSVWGER yielded an amyloid nucleation score of -0.242 ± 0.31.
Substance VIQRTYCGRVLNLHALI has an amyloid nucleation score of 0.245 ± 0.57.
In the case of FSTFYY, the amyloid nucleation score is reported as “inactive”.
For FFNDPA, the amyloid nucleation score was -0.311 ± 0.47.
For TAMKILPAQRGCIYVWHNRR, the amyloid nucleation score was “inactive”.
LFIRYALSFESMWL showed an amyloid nucleation score of 0.586 ± 0.52.
